Measurements published in PMC8429728 (Nature Communications, 2021).

Target: T1, M1-linked tetra-ubiquitin (UniProt P0CG48 1-76; P0CG48 1-76; P0CG48 1-76; P0CG48 1-76, M1-linked)
T1 construct: ubiquitin, first of four head-to-tail repeats; ubiquitin, second repeat; ubiquitin, third repeat; ubiquitin, fourth repeat; also called M1-linked chains
Assay: pull-down; GST fusion held on glutathione agarose, incubated with 0.5 μg of an individual tetra-ubiquitin chain, 2 h at 4 °C; 150 mM NaCl, 50 mM Tris pH 7.5, 0.1% IGEPAL, 5 mM DTT, 0.25 mg/mL BSA; immunoblotted for GST and ubiquitin
Conditions: both partners purified

B1: GST-TNK1-UBA (domain or fragment, human, UniProt Q13470 585-666, looked up)
chain: LLSDPELQRKIMEVELSVHGVTHQECQTALGATGGDVVSAIRNLKVDQLFHLSSRSRADCWRILEHYQWDLSAASRYVLARP
notes: TNK1, human, amino acid 585 to 666 (UBA domain), in pGEX-6P-1; also called GST-tagged recombinant TNK1 UBA; source: E. coli BL21; held on glutathione agarose and washed (pull-down); lysate loaded on anti-GST biosensors (BLI); not shown: GST, N-terminal, kept
B1: binds.
